Data on two substances can be found in patent US6291645.

The target in the experiment is GST.119-224 (glutathione S-transferase fusion protein of the SH2 domain, residues 119-224, of p56^lck) (not provided). Nature of the experiment: competition of peptide with p62 in the GST.119-224 pull-down from HeLa lysate.

Substance “pY505 phosphotyrosyl peptide (derived from the C-terminal negative regulatory region of p56^lck)” gave a concentration that competed away p62 binding of 15 mM.

As to “pY324 phosphotyrosyl peptide (derived from polyoma middle T antigen)”, the concentration that competed away p62 binding was 1 mM.
